According to patent US9181340B2, “TEM8 antibodies, conjugates thereof, and their use” (The United States of America, as represented by the …, priority 2011, dated 2015):

Legend:
NCI-H460 tumors = assay: NCI-H460 lung cancer xenograft in nude mice; type: in vivo, mouse; conditions: L2-mIgG2a 20 mg/kg 3 times per week; DMXAA 25 mg/kg then 5 mg/kg/day for two days; tumors 100 mm^3
CMG2 (CHO-CMG2) = CMG2 (CHO-CMG2) (Homo sapiens, UniProt P58335); assay: Flow cytometry staining of CHO-CMG2 cells; type: binding; conditions: CMG2 transfectants of CHO/PR230
Protocol: (§1) Trypsinized cells were rinsed in cold PBS/0.5% BSA (PBS/BSA) and labeled with anti-TEM8 Fabs (human) or full IgG (human-mouse) primary antibodies in PBS/BSA containing 10% goat serum at 4° C. Cells were rinsed with PBS/BSA and incubated with FITC-conjugated goat anti-human Fab or anti-mouse IgG secondary antibodies (Jackson Immunoresearch, West Grove, Pa.), rinsed again, and analyzed on a FACScalibur flow cytometer (Becton Dickinson, Franklin Lakes, N.J.) using CellQuest™ Software.

[1] = tested on: UACC human melanoma xenografts; assay: UACC melanoma xenograft in nude mice; type: in vivo, mouse; conditions: dose-escalation study, 15 mg/kg 3× per week
[2] = tested on: CHO-TEM8 cells treated with lethal toxin; type: cell-based, Chinese Hamster
HCT-116 tumors = assay: HCT-116 colon xenograft in nude mice; conditions: treatment 3 times per week from 50 mm^3
human TEM8 (CHO-TEM8) = human TEM8 (CHO-TEM8) (Homo sapiens, UniProt Q9H6X2); assay: Flow cytometry staining of CHO-TEM8 cells; type: binding
Protocol: as §1

Sequence of human TEM8 (CHO-TEM8) (Q9H6X2 33-564): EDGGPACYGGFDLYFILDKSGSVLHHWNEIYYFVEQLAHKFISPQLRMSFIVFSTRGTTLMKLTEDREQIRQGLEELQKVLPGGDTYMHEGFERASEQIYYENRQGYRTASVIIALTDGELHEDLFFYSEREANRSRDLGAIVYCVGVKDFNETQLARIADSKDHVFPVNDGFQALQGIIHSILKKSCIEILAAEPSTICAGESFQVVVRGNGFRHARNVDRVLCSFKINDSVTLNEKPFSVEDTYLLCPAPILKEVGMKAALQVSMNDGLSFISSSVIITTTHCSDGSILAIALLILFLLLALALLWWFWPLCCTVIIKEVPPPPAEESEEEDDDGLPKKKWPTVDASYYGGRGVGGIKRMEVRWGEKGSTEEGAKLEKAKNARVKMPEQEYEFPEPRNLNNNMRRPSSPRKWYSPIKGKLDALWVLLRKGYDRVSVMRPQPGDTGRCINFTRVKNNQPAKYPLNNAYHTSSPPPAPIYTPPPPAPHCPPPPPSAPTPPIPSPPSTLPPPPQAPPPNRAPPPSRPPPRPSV
Sequence of CMG2 (CHO-CMG2) (P58335 34-489, species assumed): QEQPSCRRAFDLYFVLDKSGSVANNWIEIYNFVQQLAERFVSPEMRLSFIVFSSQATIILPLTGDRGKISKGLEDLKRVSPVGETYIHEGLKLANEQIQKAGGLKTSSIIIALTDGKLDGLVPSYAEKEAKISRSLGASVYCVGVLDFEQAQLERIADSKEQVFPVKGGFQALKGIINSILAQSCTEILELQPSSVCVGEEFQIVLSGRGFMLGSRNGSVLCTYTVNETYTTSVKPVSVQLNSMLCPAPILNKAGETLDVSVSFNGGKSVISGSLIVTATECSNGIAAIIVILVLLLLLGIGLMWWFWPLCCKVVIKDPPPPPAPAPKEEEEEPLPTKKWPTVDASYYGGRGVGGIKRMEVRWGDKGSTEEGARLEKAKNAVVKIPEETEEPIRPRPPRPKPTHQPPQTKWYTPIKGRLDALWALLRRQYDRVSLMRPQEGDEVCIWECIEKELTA

| Molecule | NCI-H460 tumor growth (NCI-H460 tumors) | reactivity with CMG2 (CMG2 (CHO-CMG2)) | UACC tumor growth inhibition at 15 mg/kg [1] | EC50 of protection from lethal toxin toxicity [2] [µg/mL] | HCT-116 tumor growth (HCT-116 tumors) | staining of CHO-TEM8 cells (human TEM8 (CHO-TEM8)) |
| --- | --- | --- | --- | --- | --- | --- |
| Cc1ccc2c(=O)c3cccc(CC(=O)O)c3oc2c1C [DMXAA, 5,6-dimethylxanthenone-4-acetic acid, reference compound] | significantly delayed tumor growth |  |  |  |  |  |
| L5-mIgG2a: mouse/human chimeric anti-TEM8 IgG: human L5 variable domains fused with mouse IgG2a constant domains (antibody, V domains shown) VH: QVQLVESGGGLVQPGGSLRLSCAASGFTFNSYGLSWVRQAPGKGLEWVSNISSNGSYTYYADSVKGRFTISRDNSKNTLYLQMNSLRAEDTAVYYCARAGYGLFDVWGQGTLVTVSSVL VL: DIELTQPPSVSVAPGQTARISCSGDKLREYYVHWYQQKPGQAPVLVIYGDNKRPSGIPERFSGSNSGNTATLTISGTQAEDEADYYCSSWAGSRSGTVFGGGTKLTVL |  | failed to react with CMG2 | partial growth inhibition | 2.575 | inhibited HCT-116 tumor growth | stained |
